Here are results for five molecules from article PMC5737704, “The herpes viral transcription factor ICP4 forms a novel DNA recognition complex” (Nucleic Acids Research, 2017).

Data set [1] concerns the molecule itself. The data set can be described thus: SEC-MALS; 0.5 ml at 1 mg/ml on Superdex 75 or Superdex 200 10/300GL in 20 mM HEPES, 150 mM NaCl, 50 mM L-Arg, 50 mM L-Glu, 0.5 mM TCEP, pH 7.9; free protein and (ICP4N) with IE3_19mer DNA.
The target of data set [2] is T1, ICP4N (ICP4 DNA binding domain) (Herpes simplex virus 1, UniProt P08392 258-487).
T1 sequence: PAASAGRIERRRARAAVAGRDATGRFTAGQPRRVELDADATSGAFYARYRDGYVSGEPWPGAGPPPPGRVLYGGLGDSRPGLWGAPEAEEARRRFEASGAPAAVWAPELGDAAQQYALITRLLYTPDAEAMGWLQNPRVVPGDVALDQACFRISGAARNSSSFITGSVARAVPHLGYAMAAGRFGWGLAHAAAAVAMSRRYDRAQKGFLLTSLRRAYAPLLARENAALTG
The data set can be described thus: SPR; 2 mM Mg2+; nanomolar Kd, value only in Fig 5C; SPR: 20 mM HEPES, 200 mM NaCl, 2 mM MgCl2, 0.05% Tween-20, pH 7.4, 25 C; NMR: 20 mM MES, 50 mM NaCl, 50 mM L-Arg, 50 mM L-Glu, 1 mM TCEP, 2 mM MgCl2, pH 6.6, 25 C. The note with it: protein: recombinant; tags: N-terminal Strep-tag, HRV3C-cleaved (removed); chain copies: 2; label: 5' biotin on forward strand; blunt.

Data set [3] addresses T2, ICP4NdeltaIDR (ICP4deltaIDR) (Herpes simplex virus 1, UniProt P08392 288-487).
T2 sequence: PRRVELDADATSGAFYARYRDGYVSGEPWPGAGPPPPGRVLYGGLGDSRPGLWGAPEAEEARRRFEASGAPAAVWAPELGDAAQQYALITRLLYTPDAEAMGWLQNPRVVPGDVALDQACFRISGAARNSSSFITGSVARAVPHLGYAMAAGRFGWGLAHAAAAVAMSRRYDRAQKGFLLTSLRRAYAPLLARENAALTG
The data set can be described thus: X-ray crystallography; 2.12 A; SPR: 20 mM HEPES, 200 mM NaCl, 2 mM MgCl2, 0.05% Tween-20, pH 7.4, 25 C; NMR: 20 mM MES, 50 mM NaCl, 50 mM L-Arg, 50 mM L-Glu, 1 mM TCEP, 2 mM MgCl2, pH 6.6, 25 C. The note with it: protein: recombinant; tags: N-terminal Strep-tag, HRV3C-cleaved (removed); chain copies: 2; blunt.

Data set [4] concerns the target T1, ICP4N (ICP4 DNA binding domain). The data set can be described thus: X-ray crystallography; 2.28 A; SPR: 20 mM HEPES, 200 mM NaCl, 2 mM MgCl2, 0.05% Tween-20, pH 7.4, 25 C; NMR: 20 mM MES, 50 mM NaCl, 50 mM L-Arg, 50 mM L-Glu, 1 mM TCEP, 2 mM MgCl2, pH 6.6, 25 C. The note with it: protein: recombinant; tags: N-terminal Strep-tag, HRV3C-cleaved (removed); chain copies: 2; blunt.

B1: truncated ICP4 DNA binding domain, residues 288–487 (ICP4NΔIDR) (domain or fragment)
chain: PRRVELDADATSGAFYARYRDGYVSGEPWPGAGPPPPGRVLYGGLGDSRPGLWGAPEAEEARRRFEASGAPAAVWAPELGDAAQQYALITRLLYTPDAEAMGWLQNPRVVPGDVALDQACFRISGAARNSSSFITGSVARAVPHLGYAMAAGRFGWGLAHAAAAVAMSRRYDRAQKGFLLTSLRRAYAPLLARENAALTG
notes: Strep-tag removed with HRV3C protease; also called ICP4ΔIDR; ICP4NdIDR; source: E. coli T7 Express LysY, purified (Strep-Tactin, Superdex 75); not shown: Strep-tag, N-terminal, cleaved
Broadly, the stoichiometry N is the number of molecules, sites or subunits per partner or assembly. For the molecule B1, the “stoichiometry N” value in data set [1] is 2.

B2: ICP4 DNA binding domain, residues 258–487 (ICP4N) (domain or fragment)
chain: PAASAGRIERRRARAAVAGRDATGRFTAGQPRRVELDADATSGAFYARYRDGYVSGEPWPGAGPPPPGRVLYGGLGDSRPGLWGAPEAEEARRRFEASGAPAAVWAPELGDAAQQYALITRLLYTPDAEAMGWLQNPRVVPGDVALDQACFRISGAARNSSSFITGSVARAVPHLGYAMAAGRFGWGLAHAAAAVAMSRRYDRAQKGFLLTSLRRAYAPLLARENAALTG
notes: gene synthesised, codon optimised for E. coli; Strep-tag removed with HRV3C protease; Homodimer by SEC-MALS, AUC and crystal structure; also called ICP4 DBD; source: E. coli T7 Express LysY, purified (Strep-Tactin, Superdex 75); not shown: Strep-tag, N-terminal, cleaved
B2: the “stoichiometry N” value in data set [1] came to 2.

B3: IE3_19mer, biotinylated (dsDNA)
DNA 1: CCGATCGTCCACACGGAGC
DNA 2: GCTCCGTGTGGACGATCGG
B3: the binding result in data set [2] is listed as “binds”.

B4: IE3_12mer (dsDNA)
DNA 1: CCGATCGTCCAC
DNA 2: GTGGACGATCGG
Take B4: the binding result in data set [3] is listed as “binds”.

B5: IE3_19mer (dsDNA)
DNA 1: CCGATCGTCCACACGGAGC
DNA 2: GCTCCGTGTGGACGATCGG
For the molecule B5, the binding result in data set [4] is on record as “binds”.
